In doi:10.1101/2024.11.08.622622:
Read-outs that look alike come from different tables or passages of the source.

How the values were obtained:
[1] = target: His6X-Hsp20KKK (IAI motif 209-211 mutated to KKK) (Ustilago maydis); experiment: SEC
[2] = target: Ustilago maydis Hsp20, recombinant His6X-Hsp20 (Ustilago maydis); experiment: SEC
[3] = target: actin (Alexa 488 tagged); experiment: FRET or BRET
[4] = target: Ustilago maydis Hsp20, recombinant His6X-Hsp20 (Ustilago maydis); experiment: SEC; remark: listed apart in the source

stoichiometry N [1] | stoichiometry N [2] | Kd [3] [nM] | stoichiometry N [4] | Substance
2 |  |  |  | His6X-Hsp20KKK (IAI motif 209-211 mutated to KKK) (natural protein)
 | 2 | 99.6 | 18 | Ustilago maydis Hsp20, recombinant His6X-Hsp20 (natural protein)
